Data published in patent publication US20120148575A1.

Assays:
Test in all cases: SPR
muFcgRIII = target: muFcgRIII
huFcgRIIb = target: huFcgRIIb
muFcgRIIb = target: muFcgRIIb
huFcRI = target: huFcRI
huFcgRIIIA - 158V = target: huFcgRIIIA - 158V
muFcgRIV = target: muFcgRIV
muFcgRI = target: muFcgRI

muFcgRIV, sequence (A0A0B4J1G0 21-203): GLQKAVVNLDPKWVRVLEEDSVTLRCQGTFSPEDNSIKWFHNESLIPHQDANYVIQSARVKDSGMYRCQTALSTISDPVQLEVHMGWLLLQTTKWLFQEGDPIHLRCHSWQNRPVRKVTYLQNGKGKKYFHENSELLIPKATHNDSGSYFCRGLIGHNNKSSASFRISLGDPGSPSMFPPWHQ

With Control as the substance, how does the Kd (muFcgRIII) read?
The Kd was 6360 nM.

And the Kd (huFcgRIIb)?
The Kd was 14500 nM.

And the Kd (muFcgRIIb)?
Its Kd is 1470 nM.

What about the Kd (huFcRI) of the same substance?
Its Kd is 19 nM.

And the Kd (huFcgRIIIA - 158V)?
The Kd was 574 nM.

Which Kd (muFcgRIV) does the source give for Hu IgG1 here?
The Kd was 253 nM.

What about the Kd (muFcgRIII) of the same substance?
The Kd was 3660 nM.

And the Kd (muFcgRIIb)?
Its Kd is 1240 nM.

With Hu IgG1 afuc as the substance, how does the Kd (muFcgRIV) read?
The Kd was 43 nM.

What about the Kd (muFcgRIII) of the same substance?
Its Kd is 3960 nM.

What about the Kd (muFcgRI) of the same substance?
Its Kd is 397 nM.

What about the Kd (muFcgRIIb) of the same substance?
The Kd was 1260 nM.
